First the molecules themselves.
T1: HLA-A2 (human), P04439
T1 chain: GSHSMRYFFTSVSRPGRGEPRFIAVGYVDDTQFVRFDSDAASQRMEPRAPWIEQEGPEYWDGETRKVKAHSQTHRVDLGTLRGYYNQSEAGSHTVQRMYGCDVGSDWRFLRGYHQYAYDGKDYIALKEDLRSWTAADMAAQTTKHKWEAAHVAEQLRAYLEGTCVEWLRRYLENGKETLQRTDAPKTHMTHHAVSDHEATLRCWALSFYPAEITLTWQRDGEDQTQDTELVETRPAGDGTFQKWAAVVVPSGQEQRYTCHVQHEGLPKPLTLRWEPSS

B1: FAPα463-471 (471V) (…) (peptide)
chain: ALVCYGPGV
B2: FAPα16-24 (…) (peptide)
chain: VLALLVMCI
B3: FAPα486-494 (487L) (…) (peptide)
chain: KLLEENKEL
B4: FAPα463-471 (471L) (…) (peptide)
chain: ALVCYGPGL
B5: FAPα486-494 (487L, 494V) (…) (peptide)
chain: KLLEENKEV
B6: FAPα18-26 (…) (peptide)
chain: ALLVMCIVL

The target of this experiment is T1, HLA-A2 (human), P04439. Briefly: competitive binding assay (flow cytometry). As to conditions: modification not given.
Regarding B1, the IC50 (commonly the concentration that gives 50% inhibition) amounted to 4.6 µM.
With B2, the IC50 stood at 150 µM.
In the case of B3, the IC50 was found to be 21.3 µM.
As for B4, the IC50 worked out at 3.9 µM.
The same measure for B5: 25.4 µM; for B6: 650 µM.

The values are drawn from patent US20080058272A1, “Nonamer Peptides for Cancer Treatment” (priority 2006, published 2008).
